Measured values: patent US20020031818A1 (published 2002)

Molecular target: GST-Mdm2, wild type, bacterially expressed and purified (pGEX-4T-1) (human, UniProt Q00987 1-491)
Test: cell-based or functional assay

Sequence of GST-Mdm2, wild type, bacterially expressed and purified (pGEX-4T-1) (Q00987 whole entry): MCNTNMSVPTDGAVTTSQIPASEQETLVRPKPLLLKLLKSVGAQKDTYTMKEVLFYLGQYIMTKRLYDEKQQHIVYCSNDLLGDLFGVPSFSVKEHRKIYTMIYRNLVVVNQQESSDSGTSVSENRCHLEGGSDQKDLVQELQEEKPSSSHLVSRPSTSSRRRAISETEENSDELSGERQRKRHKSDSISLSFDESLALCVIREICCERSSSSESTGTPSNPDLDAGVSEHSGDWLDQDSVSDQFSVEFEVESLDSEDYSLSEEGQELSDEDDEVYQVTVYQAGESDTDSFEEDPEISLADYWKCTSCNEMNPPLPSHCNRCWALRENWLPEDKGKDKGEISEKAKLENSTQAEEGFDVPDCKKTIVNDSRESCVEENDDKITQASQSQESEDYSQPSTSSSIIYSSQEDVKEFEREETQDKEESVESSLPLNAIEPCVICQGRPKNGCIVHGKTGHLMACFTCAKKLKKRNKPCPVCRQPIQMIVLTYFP

B1: p19^ARF, wild type (other, UniProt Q64364 1-169, looked up)
chain: MGRRFLVTVRIQRAGRPLQERVFLVKFVRSRRPRTASCALAFVNMLLRLERILRRGPHRNPGPGDDDGQRSRSSSSAQLRCRFELRGPHYLLPPGARRSAGRLPGHAGGAARVRGSAGCARCLGSPAARLGPRAGTSRHRAIFAFRWVLFVFRWVVFVYRWERRPDRRA
  molar ratio required for inhibition of Mdm2 sumoylation: ~1 molar ratio p19^ARF:Mdm2
